Residue numbers refer to the chain shown, from its start. Names and notes keep the numbering of the source.
B1: DAPLE-V2-WT: short isoform of DAPLE (SEQ ID NO: 23, 552 aa) expressed in cells (protein, listed as Homo sapiens)
chain: MSVLSPGDLKPKRGSPHRGSLDRTDASTDLAMRSWPSELGSRTCSTSATTTAPSNSTPIARHPGRTKGYNSDDNLCEPSLEFEVPNHRQYVSRPSSLESSRNTSSNSSPLNLKGSSEQLHGRSESFSSEDLIPSRDLATLPREASTPGRNALGRHEYPLPRNGPLPQEGAQKRGTAPPYVGVRPCSASPSSEMVTLEEFLEESNRSSPTHDTPSCRDDLLSDYFRKASDPPAIGGQPGPPAKKEGAKMPTNFVAPTVKMAAPTSEGRPLKPGQYVKPNFRLTEAEAPPSVAPRQAQPPQSLSLGRPRQAPVPPASHAPASRSASLSRAFSLASADLLRASGPEACKQESPQKLGAPEALGGRETGSHTLQSPAPPSSHSLARERTPLVGKAGSSCQGPGPRSRPLDTRRFSLAPPKEERLAPLHQSATAPAIATAGAGAAAAGSGSNSQLLHFSPAAAPAARTKPKAPPRSGEVATITPVRAGLSLSEGDGVPGQGCSEGLPAKSPGRSPDLAPHLGRALEDCSRGSVSKSSPASPEPGGDPQTVWYEYGCV
modifications: myc tag
B2: DAPLE-V2-FA: DAPLE-V2 with F194A mutation disrupting Gαi3 binding, expressed in cells (protein)
chain: B1 chain with F199A
modifications: left off: small tags and cut ends
B3: His-GIV-CT: His-GIV-CT (aa 1660-1870, containing its GEF motif) (protein)
chain: ISETLESRHHKIKTGSPGSEVVTLQQFLEESNKLTSVQIKSSSQENLLDEVMKSLSVSSDFLGKDKPVSCGLARSVSGKTPGDFYDRRTTKPEFLRPGPRKTEDTYFISSAGKPTPGTQGKIKLVKESSLSRQSKDSNPYATLPRASSVISTAEGTTRRTSIHDFLTKDSRLPISVDSPPAAADSNTTAASNVDKVQESRNSKSRSREQQS
modifications: left off: small tags and cut ends

Key:
GST-Gαi3 = target: T1, GST-Gαi3 (Rattus norvegicus, UniProt P08753); experiment: Competition with His-DAPLE-CT for binding to GST-Gαi3 (pulldown)
T1 construct: made in house; host or cells: E. coli BL21 (DE3)
Experimental: Purified GST-Gαi3 or GST alone (5 μg) were immobilized on glutathione-Sepharose beads and incubated with binding buffer [50 mM Tris-HCl (pH 7.4), 100 mM NaCl, 0.4% (v:v) Nonidet P-40, 10 mM MgCl2, 5 mM EDTA, 30 μM GDP, 2 mM DTT, protease inhibitor mixture] for 90 min at room temperature as described before (Garcia-Marcos et al, 2011a; Ghosh et al, 2010; Ghosh et al, 2008; Lin et al, 2011). Lysates (˜250 μg) of Cos7 cells expressing appropriate myc-DAPLE constructs or purified His-DAPLE-CT (aa 1650-2028) protein (3 μg) were added to each tube, and binding reactions were carried out for 4 h at 4° C. with constant tumbling in binding buffer [50 mM Tris-HCl (pH 7.4), 100 mM NaCl, 0.4% (v:v) Nonidet P-40, 10 mM MgCl2, 5 mM EDTA, 30 μM GDP, 2 mM DTT]. Beads were washed (4×) with 1 mL of wash buffer [4.3 mM Na2HPO4, 1.4 mM KH2PO4 (pH 7.4), 137 mM NaCl, 2.7 mM KCl, 0.1% (v:v) Tween 20, 10 mM MgCl2, 5 mM EDTA, 30 μM GDP, 2 mM DTT] and boiled in Laemmli's sample buffer. In some experiments the ‘active’ conformation of the G protein was stabilized by replacing GDP in the binding and wash buffers with 30 μM GTPγS or a mixture of 30 μM GDP/30 μM AlCl3/10 mM NaF. Immunoblot quantification was performed by infrared imaging following the manufacturer's protocols using an Odyssey imaging system (Li-Cor Biosciences).

DLD1 cells = experiment: Anchorage-dependent tumor growth assay; assay type: cell-based, human; conditions: DLD1 cells stably expressing constructs, 2-3 weeks
Experimental: Anchorage-dependent growth was monitored on solid (plastic) surface as described previously (Franken et al, 2006). Briefly, anchorage-dependent growth was monitored on solid (plastic) surface. Approximately ˜1000 DLD1 cells stably expressing various DAPLE constructs were plated in 6-well plates and incubated in 5% CO2 at 37° C. for ˜2 weeks in 0.2% FBS growth media. Colonies were then stained with 0.005% crystal violet for 1 h. The remaining DLD1 cells were lysed and analyzed by immunoblotting to confirm DAPLE construct expression. Each experiment was analyzed in triplicate.

[1] = tested on: β-Catenin/TCF/LEF pathway in DLD1 7TGP cells; experiment: β-Catenin reporter assay (7TGP); assay type: cell-based, human; conditions: stable expression, starved and stimulated with Wnt5a, versus vector control
Experimental: These assays were carried out using the well-established reporter 7×Tcf-eGFP (7TGP) (Fuerer & Nusse, 2010). Stable cells lines expressing this reporter were generated by lentiviral transduction and subsequent selection using standard procedures. Lentiviral infection and selection were performed according to standard procedures. Briefly, 10 cm plates DLD1 cells at 70% confluency were incubated with media containing 8 μg/mL polybrene and 10 μl of lentivirus for 6 h. After 24 hours post infection, selection of puromycin-resistant clones was initiated by adding the antibiotic at 2 μg/ml final concentration. The resultant DLD1-7TGP stable cells were subsequently transfected with various myc-DAPLE constructs and selected for G418 resistance as described earlier in methods. The DLD1-7TGP cells stably expressing myc-DAPLE were incubated overnight at 0.2% FBS, analyzed by fluorescence microscopy, and photographed prior to lysis. Whole cell lysates samples were then boiled in Laemmli's sample buffer and GFP protein expression was monitored by immunoblotting.

NIH3T3 cells = experiment: 3D spheroid matrigel invasion assay; assay type: cell-based; conditions: in response to Wnt5a
Experimental: NIH3T3 cell invasion assay in 3D culture was performed according to the manufacturer's protocol (Trevigen, Cultrex 3D Spheroid BME Cell Invasion Assay, catalog #3500-096-K). Briefly, non-invasive NIH3T3 cells (˜3000 cells) transfected with empty vector (control) or myc-DAPLEconstructs were incubated first in the Spheroid Formation extracellular matrix (ECM) containing 0.2% FBS for 3 days. Invasion matrix was then added and layered on top with media containing FBS. […] Photographs were analyzed and pseudocolored by Image J to reflect cell density.

T1 sequence (P08753 whole entry): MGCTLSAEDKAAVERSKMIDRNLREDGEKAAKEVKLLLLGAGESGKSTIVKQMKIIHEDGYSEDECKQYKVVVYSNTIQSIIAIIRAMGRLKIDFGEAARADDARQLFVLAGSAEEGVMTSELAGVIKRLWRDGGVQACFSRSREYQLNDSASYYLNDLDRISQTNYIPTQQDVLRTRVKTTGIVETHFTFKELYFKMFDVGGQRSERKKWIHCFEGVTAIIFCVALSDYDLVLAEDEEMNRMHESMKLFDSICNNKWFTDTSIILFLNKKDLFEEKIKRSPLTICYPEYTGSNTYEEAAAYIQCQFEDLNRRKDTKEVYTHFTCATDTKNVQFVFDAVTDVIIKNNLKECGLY

| Molecule | competition with His-DAPLE-CT for binding to GST-Gαi3 (GST-Gαi3) | adherent colonies per well (tumor growth) (DLD1 cells) | eGFP signal (Wnt transcriptional activity) [1] | invasion of matrigel by spheroids (NIH3T3 cells) |
| --- | --- | --- | --- | --- |
| KB-752: synthetic GEF peptide similar to the GBA motif (SRVTWYDFLMEDTKSR) [reference compound] | competed | – | – | – |
| B1 | – | can inhibit tumor growth | showed inhibition of eGFP | Neither the WT nor the FA mutant of DAPLE-V2 could trigger invasion |
| B2 | – | – | not | Neither the WT nor the FA mutant of DAPLE-V2 could trigger invasion |
| B3 | competed | – | – | – |

Source: US10358467B2, “Therapeutic targets for cancer progression” (The Regents of the University of California, priority 2015, dated 2019)
